The text below walks through data of the Immune Epitope Database (IEDB).

A value given as a limit tells only on which side of the number the result lay.

One assay addresses HLA-A*02:01. The assay is described as follows: IEDB peptide-MHC binding, purified MHC/competitive/radioactivity; ≥ and ≤ were set here for values at or beyond the usual limits of such assays. Particulars: source organism: Bordetella pertussis.
For the sequence HLSPALADV, the IC50 was found to be 0.444 µM. On the same count and under the same terms, as for STYELLDYL, the figure is 8.01 µM.

In another assay the target is HLA-B*07:02. The description is as above. Particulars: source organism: Bordetella pertussis.
As for QQLKQADRD, the concentration for half-maximal inhibition (IC50) was 69.6 µM.

Take LAARGDGAL: the IC50 came to 6.34 µM.

The target of another assay is HLA-B*35:01. The assay is described as above. Particulars: source organism: Bordetella pertussis.
On to YAIDGTAAG, for which the IC50 stood at 2.33 µM. Consider LAARGDGAL, for which the half-maximal inhibitory concentration (IC50) amounted to 69.9 µM.

A further assay has as its target HLA-B*44:03. Described as above. Particulars: source organism: Bordetella pertussis.
Take AEGGATLGA: the IC50 is 12 µM. MEVMLRAVF: the half-inhibitory concentration (IC50) worked out at 0.0115 µM.

For LSAALGADW, the 50% inhibitory concentration (IC50) stood at 1.17 µM.

For a further assay, the target named is HLA-B*53:01. The assay is described as above. Particulars: source organism: Bordetella pertussis.
For YAEHGEVSI, the IC50 turned out to be 11.4 µM. Turning to FIYRETFCI, the half-inhibitory concentration (IC50) is 6.63 µM. For the sequence VSGGSLSAP, the half-maximal inhibitory concentration (IC50) is 54.5 µM.

VGAGGYEAG: the 50% inhibitory concentration (IC50) came out at 69.9 µM. Same read-out and setting: the value for LSAALGADW was 1.69 µM; that for TVVQRNKHW was 69.9 µM; that for ASSPDAHVP was 52.3 µM.

A further assay has as its target HLA-B*57:01. The description is as above. The settings on record: source organism: Bordetella pertussis.
With NNETMSGRQ, the 50% inhibitory concentration (IC50) is at least 70.4 µM. On to EKRLDIDDA, for which the concentration for half-maximal inhibition (IC50) is at least 70.4 µM. Take VTSVAMKPY: the IC50 was found to be 9.09 µM. In the case of TVVQRNKHW, the half-inhibitory concentration (IC50) was at least 70.4 µM.

By IC50 is commonly meant the point on the concentration scale where inhibition reaches its midpoint.
